“Also recorded” adds a separate entry of the source.
What was measured:
[1] = test system: retinal ganglion cells (RGCs) / optic nerve axons; conditions: SOCS3f/f mice, CNTF applied intravitreously; cited from earlier work
[2] = test system: corticospinal tract (CST) axons; test: CST sprouting after intraspinal CNTF injection without pyramidotomy, BDA tracing; type: in vivo, mice
Description: For pyramidotomy, mice were anesthetized with ketamine/xylazine. The procedure is similar to that described previously […]. Briefly, an incision was made at the left side of the trachea. Blunt dissection was performed to expose the skull base and a craniotomy in the occipital bone allowed for access to the medullary pyramids. The left pyramid was cut with a fine scalpel medially up to the basilar artery. The wound was dosed in layers with 6.0 sutures. The mice were placed on soft bedding on a warming blanket held at 37° C. until fully awake. We traced the intact CST 4 weeks later with BDA (see below). For CNTF injection into adult SOCS3 f/f mice with neonatal AAV-Cre cortical injection, a laminectomy was performed at C1 and 1 ul of CNTF (10 ug/ml, PeproTech, 450-13) was injected with a nanoliter injector into the ventral side of the dorsal column (0.5 mm deep). BDA tracing was performed 6 weeks later.
To label CST axons by anterograde tracing, a total of 2.0 μl of BDA (10%, Invitrogen, D-1956) was injected into the right sensorimotor cortex at five sites (anterior-posterior coordinates from bregma in mm; 1.0, 0.5, 0, −0.5, −1.0, all at 1.0 mm lateral and at a depth of 0.5 mm). Mice were kept for an additional 2 weeks before being sacrificed.
Mice were given a lethal dose of anesthesia and transcardially perfused with 4% paraformaldehyde. Brains and spinal cords were isolated and post-fixed in the same fixative overnight at 4° C. Tissues were cryoprotected via increasing concentrations of sucrose. After embedding into OCT compound, the samples were snap frozen in dry ice. […]
For the groups of pyramidotomy, digital images of C7 or other levels of the spinal cord transverse sections were collected using a Nikon fluorescence microscope. […]
To quantify the number of sprouting axons, the methods used in previous studies (Liu et al., 2010) were followed. […] Only fibers crossing the three lines were counted in each section. The results were presented after normalization with the number of counted CST fibers at the medulla level. At least three sections were counted for each mouse.

B1: ciliary neurotrophic factor (protein, UniProt P26441 1-200, looked up)
Ciliary neurotrophic factor: MAFTEHSPLTPHRRDLCSRSIWLARKIRSDLTALTESYVKHQGLNKNINLDSADGMPVASTDQWSELTEAERLQENLQAYRTFHVLLARLLEDQQVHFTPTEGDFHQAIHTLLLQVAAFAYQIEELMILLEYKIPRNEADGMPINVGDGGLFEKKLWGLKVLQELSQWTVRSIHDLRFISSHQTGIPARGSHYIANNKKM
- effect of intravitreal CNTF on axon regeneration induced by SOCS3 deletion [1]: enhances axon regeneration induced by SOCS3 deletion
- CST sprouting at C7 spinal cord level ([2]; SOCS3f/f mice, cortical AAV-Cre at P1, CNTF injected at C1, no injury): but not C7; also recorded: No CST sprouts seen
- CST sprouting at C1 spinal cord level ([2]; SOCS3f/f mice, cortical AAV-Cre at P1, CNTF injected into dorsal spinal cord at C1 in adulthood, no injury, vs saline): triggered a significant CST sprouting response; also recorded: promotes sprouting in SOCS3-deleted neurons in the absence of an injury; also recorded: numerous crossing CST axons
- extent of CST sprouting compared with left pyramidotomy ([2]; single CNTF injection at C1, SOCS3-deleted mice): less than after left pyramidotomy; also recorded: less pronounced than what is seen after injury

From patent publication US10918697B2, “Co-activation of mTOR and STAT3 pathways to promote neuronal survival and regeneration” (Children's Medical Center Corporation, priority 2011, dated 2021)
